Experimental findings from IntAct's records for PubMed 31515488 are described below.

B1: Notch homolog 2 N-terminal-like protein A (Homo sapiens), Q7Z3S9 (parent)
chain: MCVTYHNGTGYCKCPEGFLGEYCQHRDPCEKNRCQNGGTCVAQAMLGKATCRCASGFTGEDCQYSTSHPCFVSRPCLNGGTCHMLSRDTYECTCQVGFTGKECQWTDACLSHPCANGSTCTTVANQFSCKCLTGFTGQKCETDVNECDIPGHCQHGGTCLNLPGSYQCQCLQGFTGQYCDSLYVPCAPSPCVNGGTCRQTGDFTFECNCLPETVRRGTELWERDREVWNGKEHDEN
partner: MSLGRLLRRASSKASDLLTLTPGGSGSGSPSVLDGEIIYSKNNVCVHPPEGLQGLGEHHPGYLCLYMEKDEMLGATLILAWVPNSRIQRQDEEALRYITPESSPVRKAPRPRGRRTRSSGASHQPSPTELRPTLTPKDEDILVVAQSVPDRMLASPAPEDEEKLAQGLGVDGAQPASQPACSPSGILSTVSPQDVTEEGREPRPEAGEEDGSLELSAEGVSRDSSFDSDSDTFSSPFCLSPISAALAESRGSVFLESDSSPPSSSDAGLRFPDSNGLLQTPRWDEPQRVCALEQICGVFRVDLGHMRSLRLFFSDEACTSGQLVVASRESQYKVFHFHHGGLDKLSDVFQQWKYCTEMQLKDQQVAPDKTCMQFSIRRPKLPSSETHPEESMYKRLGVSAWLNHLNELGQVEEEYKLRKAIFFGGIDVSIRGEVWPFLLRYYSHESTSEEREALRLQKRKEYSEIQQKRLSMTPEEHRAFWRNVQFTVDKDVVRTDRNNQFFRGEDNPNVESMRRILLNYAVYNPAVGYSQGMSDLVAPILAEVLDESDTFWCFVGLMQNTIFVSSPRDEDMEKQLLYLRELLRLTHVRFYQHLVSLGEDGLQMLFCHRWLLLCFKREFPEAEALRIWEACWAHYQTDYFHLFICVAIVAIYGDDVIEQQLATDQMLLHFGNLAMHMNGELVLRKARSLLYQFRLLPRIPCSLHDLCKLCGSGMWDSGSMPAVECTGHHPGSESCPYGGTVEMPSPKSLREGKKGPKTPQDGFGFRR
B2: Nebulette (Homo sapiens), O76041 (parent)
chain: MRVPVFEDIKDETEEEKIGEEENEEDQVFYKPVIEDLSMELARKCTELISDIRYKEEFKKSKDKCTFVTDSPMLNHVKNIGAFISEAKYKGTIKADLSNSLYKRMPATIDSVFAGEVTQLQSEVAYKQKHDAAKGFSDYAHMKEPPEVKHAMEVNKHQSNISYRKDVQDTHTYSAELDRPDIKMATQISKIISNAEYKKGQGIMNKEPAVIGRPDFEHAVEASKLSSQIKYKEKFDNEMKDKKHHYNPLESASFRQNQLAATLASNVKYKKDIQNMHDPVSDLPNLLFLDHVLKASKMLSGREYKKLFEENKGMYHFDADAVEHLHHKGNAVLQSQVKYKEEYEKNKGKPMLEFVETPSYQASKEAQKMQSEKVYKEDFEKEIKGRSSLDLDKTPEFLHVKYITNLLREKEYKKDLENEIKGKGMELNSEVLDIQRAKRASEMASEKEYKKDLESIIKGKGMQAGTDTLEMQHAKKAAEIASEKDYKRDLETEIKGKGMQVSTDTLDVQRAKKASEMASQKQYKKDLENEIKGKGMQVSMDIPDILRAKRTSEIYSQRKYKDEAEKMLSNYSTIADTPEIQRIKTTQQNISAVFYKKEVGAGTAVKDSPEIERVKKNQQNISSVKYKEEIKHATAISDPPELKRVKENQKNISNLQYKEQNYKATPVSMTPEIERVRRNQEQLSAVKYKGELQRGTAISDPPELKRAKENQKNISNVYYRGQLGRATTLSVTPEMERVKKNQENISSVKYTQDHKQMKGRPSLILDTPAMRHVKEAQNHISMVKYHEDFEKTKGRGFTPVVDDPVTERVRKNTQVVSDAAYKGVHPHIVEMDRRPGIIVDLKVWRTDPGSIFDLDPLEDNIQSRSLHMLSEKASHYRRHWSRSHSSSTFGTGLGDDRSEISEIYPSFSCCSEVTRPSDEGAPVLPGAYQQSHSQGYGYMHQTSVSSMRSMQHSPNLRTYRAMYDYSAQDEDEVSFRDGDYIVNVQPIDDGWMYGTVQRTGRTGMLPANYIEFVN
B3: Microtubule-associated tumor suppressor candidate 2 (Homo sapiens), Q5JR59-3 (parent)
chain: MGHCCCKPYNCLQCLDKTNESALVKEKELSIELANIRDEVAFHTAKCEKLQKEKEELERRFEDEVKRLGWQQQAELQELEERLQLQFEAEMARLQEEHGDQLLSIRCQHQEQVEDLTASHDAALLEMENNHTVAITILQDDHDHKVQELMSTHELEKKELEENFEKLRLSLQDQVDTLTFQSQSLRDRARRFEEALRKNTEEQLEIALAPYQHLEEDMKSLKQVLEMKNQQIHEQEKKILELEKLAEKNIILEEKIQVLQQQNEDLKARIDQNTVVTRQLSEENANLQEYVEKETQEKKRLSRTNEELLWKLQTGDPTSPIKLSPTSPVYRGSSSGPSSPARVSTTPR
B4: E3 ubiquitin-protein ligase MYLIP (Homo sapiens), Q8WY64 (parent)
chain: MLCYVTRPDAVLMEVEVEAKANGEDCLNQVCRRLGIIEVDYFGLQFTGSKGESLWLNLRNRISQQMDGLAPYRLKLRVKFFVEPHLILQEQTRHIFFLHIKEALLAGHLLCSPEQAVELSALLAQTKFGDYNQNTAKYNYEELCAKELSSATLNSIVAKHKELEGTSQASAEYQVLQIVSAMENYGIEWHSVRDSEGQKLLIGVGPEGISICKDDFSPINRIAYPVVQMATQSGKNVYLTVTKESGNSIVLLFKMISTRAASGLYRAITETHAFYRCDTVTSAVMMQYSRDLKGHLASLFLNENINLGKKYVFDIKRTSKEVYDHARRALYNAGVVDLVSRNNQSPSHSPLKSSESSMNCSSCEGLSCQQTRVLQEKLRKLKEAMLCMVCCEEEINSTFCPCGHTVCCESCAAQLQSCPVCRSRVEHVQHVYLPTHTSLLNLTVI
partner: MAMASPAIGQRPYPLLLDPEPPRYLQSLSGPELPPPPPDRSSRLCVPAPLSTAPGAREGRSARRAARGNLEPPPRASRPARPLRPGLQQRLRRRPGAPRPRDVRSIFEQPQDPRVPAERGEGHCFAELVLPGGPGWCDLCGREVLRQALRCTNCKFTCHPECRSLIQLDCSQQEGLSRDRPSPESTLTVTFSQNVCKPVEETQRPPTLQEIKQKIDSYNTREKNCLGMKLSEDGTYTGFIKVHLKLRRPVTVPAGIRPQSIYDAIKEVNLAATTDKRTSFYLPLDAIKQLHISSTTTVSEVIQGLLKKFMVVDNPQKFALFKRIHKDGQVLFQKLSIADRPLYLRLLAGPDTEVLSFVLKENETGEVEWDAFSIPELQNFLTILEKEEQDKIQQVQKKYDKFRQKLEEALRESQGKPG
B5: Fanconi anemia group G protein (Homo sapiens), O15287 (parent)
chain: MSRQTTSVGSSCLDLWREKNDRLVRQAKVAQNSGLTLRRQQLAQDALEGLRGLLHSLQGLPAAVPVLPLELTVTCNFIILRASLAQGFTEDQAQDIQRSLERVLETQEQQGPRLEQGLRELWDSVLRASCLLPELLSALHRLVGLQAALWLSADRLGDLALLLETLNGSQSGASKDLLLLLKTWSPPAEELDAPLTLQDAQGLKDVLLTAFAYRQGLQELITGNPDKALSSLHEAASGLCPRPVLVQVYTALGSCHRKMGNPQRALLYLVAALKEGSAWGPPLLEASRLYQQLGDTTAELESLELLVEALNVPCSSKAPQFLIEVELLLPPPDLASPLHCGTQSQTKHILASRCLQTGRAGDAAEHYLDLLALLLDSSEPRFSPPPSPPGPCMPEVFLEAAVALIQAGRAQDALTLCEELLSRTSSLLPKMSRLWEDARKGTKELPYCPLWVSATHLLQGQAWVQLGAQKVAISEFSRCLELLFRATPEEKEQGAAFNCEQGCKSDAALQQLRAAALISRGLEWVASGQDTKALQDFLLSVQMCPGNRDTYFHLLQTLKRLDRRDEATALWWRLEAQTKGSHEDALWSLPLYLESYLSWIRPSDRDAFLEEFRTSLPKSCDL

Variants of B1 are the subject of the first test. As to conditions: with tbc16_human TBC1D16, Q8TBP0.
As to A115T, the “effect of a mutation on the interaction” value is listed as “with no effect”.

The next test covers variants of B2. As to conditions: with traf2_human TRAF2, Q12933.
traf2_human TRAF2, Q12933, sequence (Q12933 whole entry): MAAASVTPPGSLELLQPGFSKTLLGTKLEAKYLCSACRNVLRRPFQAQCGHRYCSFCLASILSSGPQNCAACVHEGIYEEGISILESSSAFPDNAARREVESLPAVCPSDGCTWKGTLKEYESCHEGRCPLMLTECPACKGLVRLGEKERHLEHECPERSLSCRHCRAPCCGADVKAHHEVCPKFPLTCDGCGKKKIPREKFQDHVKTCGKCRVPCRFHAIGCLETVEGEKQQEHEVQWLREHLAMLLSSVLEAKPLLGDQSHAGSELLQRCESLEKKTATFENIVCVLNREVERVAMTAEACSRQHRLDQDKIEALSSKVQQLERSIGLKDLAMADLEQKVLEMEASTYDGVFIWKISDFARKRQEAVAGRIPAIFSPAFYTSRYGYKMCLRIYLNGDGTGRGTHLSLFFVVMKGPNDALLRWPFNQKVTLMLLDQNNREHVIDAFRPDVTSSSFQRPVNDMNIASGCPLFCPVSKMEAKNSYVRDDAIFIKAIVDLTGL
For the variant R613Q, the “effect of a mutation on the interaction” value was “with no effect”.

As to M351V, the “effect of a mutation on the interaction” value is “with no effect”.

Another test covers variants of B2. As to conditions: with cc136_human CCDC136, Q96JN2.
cc136_human CCDC136, Q96JN2, sequence (Q96JN2 whole entry): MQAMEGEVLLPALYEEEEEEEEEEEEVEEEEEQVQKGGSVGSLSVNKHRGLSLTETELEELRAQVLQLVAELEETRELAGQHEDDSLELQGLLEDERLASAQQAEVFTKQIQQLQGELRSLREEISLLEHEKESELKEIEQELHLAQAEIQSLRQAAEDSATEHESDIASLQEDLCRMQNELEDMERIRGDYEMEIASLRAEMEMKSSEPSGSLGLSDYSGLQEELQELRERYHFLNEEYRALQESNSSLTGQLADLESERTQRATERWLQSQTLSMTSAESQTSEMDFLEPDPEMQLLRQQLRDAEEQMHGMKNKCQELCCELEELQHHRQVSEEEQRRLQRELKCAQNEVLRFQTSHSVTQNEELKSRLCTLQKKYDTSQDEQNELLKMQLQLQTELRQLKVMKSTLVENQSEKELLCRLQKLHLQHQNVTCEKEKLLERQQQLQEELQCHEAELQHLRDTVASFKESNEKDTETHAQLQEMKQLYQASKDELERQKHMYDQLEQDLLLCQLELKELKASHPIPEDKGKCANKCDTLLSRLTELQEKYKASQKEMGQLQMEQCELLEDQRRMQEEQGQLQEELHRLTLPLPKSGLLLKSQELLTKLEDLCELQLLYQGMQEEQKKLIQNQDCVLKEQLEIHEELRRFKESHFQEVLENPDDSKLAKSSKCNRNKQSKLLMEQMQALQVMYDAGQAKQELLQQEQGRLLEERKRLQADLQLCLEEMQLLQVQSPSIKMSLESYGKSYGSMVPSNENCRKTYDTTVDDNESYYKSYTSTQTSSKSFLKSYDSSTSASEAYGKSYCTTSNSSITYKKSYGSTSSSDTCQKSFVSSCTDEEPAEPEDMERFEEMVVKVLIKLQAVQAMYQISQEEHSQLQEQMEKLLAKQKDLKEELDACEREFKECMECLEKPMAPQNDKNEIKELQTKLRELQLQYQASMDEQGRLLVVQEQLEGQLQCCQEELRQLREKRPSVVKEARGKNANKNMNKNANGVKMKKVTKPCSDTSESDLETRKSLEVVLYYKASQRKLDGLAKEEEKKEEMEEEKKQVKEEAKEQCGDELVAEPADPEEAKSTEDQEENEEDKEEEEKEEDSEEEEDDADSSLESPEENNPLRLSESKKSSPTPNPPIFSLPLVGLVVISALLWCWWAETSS
R613Q: the “effect of a mutation on the interaction” value is on record as “with no effect”.

M351V: the “effect of a mutation on the interaction” value is given as “with no effect”.

Variants of B2 are the subject of a further test. As to conditions: with traf1_human TRAF1, Q13077.
traf1_human TRAF1, Q13077, sequence (Q13077 whole entry): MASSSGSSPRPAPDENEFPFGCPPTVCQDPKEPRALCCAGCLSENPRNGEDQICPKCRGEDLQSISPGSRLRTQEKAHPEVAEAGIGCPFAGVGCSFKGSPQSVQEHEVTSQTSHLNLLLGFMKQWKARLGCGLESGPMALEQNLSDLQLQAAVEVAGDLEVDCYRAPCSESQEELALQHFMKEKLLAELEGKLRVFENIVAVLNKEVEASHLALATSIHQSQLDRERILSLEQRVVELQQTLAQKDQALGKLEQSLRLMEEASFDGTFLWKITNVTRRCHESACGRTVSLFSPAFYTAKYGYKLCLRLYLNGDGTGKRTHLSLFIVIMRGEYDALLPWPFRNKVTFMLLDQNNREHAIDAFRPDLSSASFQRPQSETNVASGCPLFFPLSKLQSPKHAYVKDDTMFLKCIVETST
Regarding R613Q, the “effect of a mutation on the interaction” value is “with no effect”.

As to M351V, the “effect of a mutation on the interaction” value is recorded as “with no effect”.

Variants of B3 are the subject of the next test. As to conditions: with catz_human CTSZ.
In the case of A89V, the “effect of a mutation on the interaction” value is “with no effect”.

Another test covers variants of B3. As to conditions: with zn136_human ZNF136, P52737.
zn136_human ZNF136, P52737, sequence (P52737 whole entry): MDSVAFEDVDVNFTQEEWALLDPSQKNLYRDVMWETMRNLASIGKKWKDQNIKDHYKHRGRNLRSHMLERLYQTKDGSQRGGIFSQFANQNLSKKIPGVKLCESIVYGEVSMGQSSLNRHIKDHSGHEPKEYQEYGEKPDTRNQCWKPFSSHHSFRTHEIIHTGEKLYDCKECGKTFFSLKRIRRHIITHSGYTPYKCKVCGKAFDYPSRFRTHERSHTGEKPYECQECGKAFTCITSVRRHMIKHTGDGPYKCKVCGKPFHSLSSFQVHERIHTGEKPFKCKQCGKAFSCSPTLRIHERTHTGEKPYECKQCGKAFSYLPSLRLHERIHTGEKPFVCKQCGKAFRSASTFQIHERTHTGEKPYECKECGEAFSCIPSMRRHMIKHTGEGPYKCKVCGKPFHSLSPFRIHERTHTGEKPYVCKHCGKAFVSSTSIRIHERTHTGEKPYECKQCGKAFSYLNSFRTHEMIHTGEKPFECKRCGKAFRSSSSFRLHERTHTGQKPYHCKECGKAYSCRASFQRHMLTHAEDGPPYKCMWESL
As for A89V, the “effect of a mutation on the interaction” value is recorded as “with no effect”.

A further test covers variants of B3. As to conditions: with TSGA10IP.
Take A89V: the “effect of a mutation on the interaction” value is recorded as “with no effect”.

The variants in the next test derive from B3. As to conditions: with kat5_human KAT5, Q92993.
In the case of A89V, the “effect of a mutation on the interaction” value is “with no effect”.

In the next test the parent is B3. As to conditions: with cd5r1_human CDK5R1, Q15078.
In the case of A89V, the “effect of a mutation on the interaction” value was “with no effect”.

The variants in another test derive from B3. As to conditions: with bmp7_human BMP7, P18075.
bmp7_human BMP7, P18075, sequence (P18075 whole entry): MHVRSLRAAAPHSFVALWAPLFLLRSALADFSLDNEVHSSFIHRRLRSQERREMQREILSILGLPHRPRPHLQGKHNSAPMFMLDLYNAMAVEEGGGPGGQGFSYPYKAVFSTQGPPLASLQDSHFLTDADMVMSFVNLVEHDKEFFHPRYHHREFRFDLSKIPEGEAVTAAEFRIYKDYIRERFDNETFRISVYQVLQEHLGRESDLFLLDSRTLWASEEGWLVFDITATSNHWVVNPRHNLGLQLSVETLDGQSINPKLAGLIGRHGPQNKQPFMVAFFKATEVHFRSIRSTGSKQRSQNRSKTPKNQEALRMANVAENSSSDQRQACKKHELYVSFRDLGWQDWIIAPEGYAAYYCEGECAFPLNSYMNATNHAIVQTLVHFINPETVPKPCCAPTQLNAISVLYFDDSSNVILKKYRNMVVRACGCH
Take A89V: the “effect of a mutation on the interaction” value is reported as “with no effect”.

Variants of B3 are the subject of a further test. As to conditions: with gtpba_human GTPBP10, A4D1E9.
Turning to A89V, the “effect of a mutation on the interaction” value is “with no effect”.

The variants in the next test derive from B3. As to conditions: with cdkl3_human CDKL3, Q8IVW4.
With A89V, the “effect of a mutation on the interaction” value is recorded as “with no effect”.

In another test the parent is B3. As to conditions: with cu058_human C21orf58, P58505.
As to A89V, the “effect of a mutation on the interaction” value is “with no effect”.

Variants of B3 are the subject of another test. As to conditions: with zn426_human ZNF426, Q9BUY5.
For A89V, the “effect of a mutation on the interaction” value is “with no effect”.

Variants of B3 are the subject of the next test. As to conditions: with snai1_human SNAI1, O95863.
snai1_human SNAI1, O95863, sequence (O95863 whole entry): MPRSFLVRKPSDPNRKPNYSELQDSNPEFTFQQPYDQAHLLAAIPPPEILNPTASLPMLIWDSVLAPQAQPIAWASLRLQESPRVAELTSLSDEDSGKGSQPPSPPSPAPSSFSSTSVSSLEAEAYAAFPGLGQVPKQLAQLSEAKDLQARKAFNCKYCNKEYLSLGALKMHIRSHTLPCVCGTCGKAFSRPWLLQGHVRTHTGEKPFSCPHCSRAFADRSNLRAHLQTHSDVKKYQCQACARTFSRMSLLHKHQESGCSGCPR
On to A89V, for which the “effect of a mutation on the interaction” value was “with no effect”.

The variants in the next test derive from B3. As to conditions: with zn329_human ZNF329, Q86UD4.
zn329_human ZNF329, Q86UD4, sequence (Q86UD4 whole entry): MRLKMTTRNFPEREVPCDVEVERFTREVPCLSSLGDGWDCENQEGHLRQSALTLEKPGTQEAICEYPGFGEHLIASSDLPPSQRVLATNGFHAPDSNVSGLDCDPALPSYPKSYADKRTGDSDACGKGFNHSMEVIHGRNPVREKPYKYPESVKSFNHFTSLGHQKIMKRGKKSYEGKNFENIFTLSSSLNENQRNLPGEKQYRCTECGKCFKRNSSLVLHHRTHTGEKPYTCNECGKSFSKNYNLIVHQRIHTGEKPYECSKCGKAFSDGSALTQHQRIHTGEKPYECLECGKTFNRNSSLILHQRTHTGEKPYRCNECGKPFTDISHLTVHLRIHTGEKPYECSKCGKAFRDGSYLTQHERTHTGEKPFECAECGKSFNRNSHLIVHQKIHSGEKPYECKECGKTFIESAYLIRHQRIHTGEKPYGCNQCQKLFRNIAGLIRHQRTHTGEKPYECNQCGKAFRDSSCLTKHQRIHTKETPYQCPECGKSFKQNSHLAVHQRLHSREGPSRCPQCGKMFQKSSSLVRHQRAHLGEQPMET
Take A89V: the “effect of a mutation on the interaction” value is recorded as “with no effect”.

In the next test the parent is B4. As to conditions: with rasf5_human RASSF5, Q8WWW0.
With N342S, the “effect of a mutation on the interaction” value was “with no effect”.

Another test covers variants of B5. As to conditions: with mbip1_human MBIP.
Turning to S7F, the “effect of a mutation on the interaction” value is given as “with no effect”.

The next test covers variants of B5. As to conditions: with KRT15, P19012.
KRT15, P19012, sequence (P19012 whole entry): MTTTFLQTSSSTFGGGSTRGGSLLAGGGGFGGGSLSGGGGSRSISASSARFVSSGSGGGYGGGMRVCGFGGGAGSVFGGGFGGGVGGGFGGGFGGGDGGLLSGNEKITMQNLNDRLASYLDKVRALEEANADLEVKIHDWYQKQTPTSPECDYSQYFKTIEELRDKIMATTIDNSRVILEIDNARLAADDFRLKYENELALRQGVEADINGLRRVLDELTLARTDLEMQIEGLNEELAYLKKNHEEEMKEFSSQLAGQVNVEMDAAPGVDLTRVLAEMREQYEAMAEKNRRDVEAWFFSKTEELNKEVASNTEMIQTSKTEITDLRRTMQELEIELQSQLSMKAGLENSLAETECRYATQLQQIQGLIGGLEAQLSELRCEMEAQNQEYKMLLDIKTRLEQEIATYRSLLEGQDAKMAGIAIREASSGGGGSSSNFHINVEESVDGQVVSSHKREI
As to S7F, the “effect of a mutation on the interaction” value was “with no effect”.

Variants of B5 are the subject of the next test. As to conditions: with cenpr_human ITGB3BP.
S7F: the “effect of a mutation on the interaction” value is reported as “with no effect”.

The variants in another test derive from B5. As to conditions: with KRT19, P08727.
KRT19, P08727, sequence (P08727 whole entry): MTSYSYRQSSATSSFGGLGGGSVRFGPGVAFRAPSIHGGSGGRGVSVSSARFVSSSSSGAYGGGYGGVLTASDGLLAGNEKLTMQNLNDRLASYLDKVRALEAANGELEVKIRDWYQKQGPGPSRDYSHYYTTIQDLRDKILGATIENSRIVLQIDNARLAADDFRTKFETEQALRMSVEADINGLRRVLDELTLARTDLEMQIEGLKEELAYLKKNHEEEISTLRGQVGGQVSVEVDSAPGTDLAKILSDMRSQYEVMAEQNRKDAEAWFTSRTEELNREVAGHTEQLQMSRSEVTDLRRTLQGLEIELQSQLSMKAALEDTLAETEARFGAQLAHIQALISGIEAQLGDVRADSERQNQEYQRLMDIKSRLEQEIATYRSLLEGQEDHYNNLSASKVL
On to S7F, for which the “effect of a mutation on the interaction” value is “with no effect”.
